# Laboratory results taken from PMC4491848.
# Molecular target: platelet membrane glycoprotein (GP) Ib on human platelets (human (endogenous in platelets)) (UniProt P07359)
# Sequence of UniProt P07359 (P07359 17-652, chain 1 of 2): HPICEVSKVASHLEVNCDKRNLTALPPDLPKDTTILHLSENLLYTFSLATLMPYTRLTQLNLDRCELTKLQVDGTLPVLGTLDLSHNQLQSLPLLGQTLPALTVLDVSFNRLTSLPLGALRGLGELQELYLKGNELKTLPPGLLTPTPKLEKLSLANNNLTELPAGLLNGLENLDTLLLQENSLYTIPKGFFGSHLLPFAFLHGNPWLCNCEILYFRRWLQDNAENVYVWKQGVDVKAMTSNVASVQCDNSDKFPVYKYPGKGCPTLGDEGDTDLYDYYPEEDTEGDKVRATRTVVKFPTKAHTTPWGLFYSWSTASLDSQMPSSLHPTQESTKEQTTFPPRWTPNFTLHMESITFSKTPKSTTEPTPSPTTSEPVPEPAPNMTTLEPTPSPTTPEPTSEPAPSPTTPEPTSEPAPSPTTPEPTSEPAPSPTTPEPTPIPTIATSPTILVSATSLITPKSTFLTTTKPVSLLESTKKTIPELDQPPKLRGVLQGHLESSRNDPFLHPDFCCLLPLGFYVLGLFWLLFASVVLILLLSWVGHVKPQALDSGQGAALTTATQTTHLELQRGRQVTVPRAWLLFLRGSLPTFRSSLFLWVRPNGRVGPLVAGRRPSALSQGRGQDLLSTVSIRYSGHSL
# Sequence of UniProt P07359 (P13224 26-206, chain 2 of 2, further chain): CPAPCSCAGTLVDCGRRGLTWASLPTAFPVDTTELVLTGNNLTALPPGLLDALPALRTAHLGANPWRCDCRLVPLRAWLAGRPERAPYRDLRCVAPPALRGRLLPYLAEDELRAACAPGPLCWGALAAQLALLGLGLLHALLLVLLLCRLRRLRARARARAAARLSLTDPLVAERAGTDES
row,Substance,"ristocetin-induced platelet aggregation rate in human platelet-rich plasma, dose series up to 3 μg/ml; value at the 3 μg/ml dose; the pair said to be blocked is GPIb and vWF [%]"
1,natural Agkisacutacin (complex),3.46
2,recombinant Agkisacutacin (complex),5.65
